The results in this text go back to patent publication EP1469082A1 (Boehringer Ingelheim International GmbH, dated 2004).

For assay [1], the target named is T1, holo-APC (Anaphase Promoting Complex / cyclosome) from HeLa cells (human, UniProt Q9H1A4 1-1944; Q9UJX6 1-822; P30260 1-824; Q9UJX5 1-808; Q9UJX4 1-755; Q13042 …).
T1 construct: Native multisubunit complex with 11 known subunits; It carries substoichiometric amounts of endogenous CDH1; also called immunopurified APC; APC-IPs
The assay is described as follows: peptide matrix pull-down from APC-containing fractions, western blot. (Immunoblotting shows a protein as a band on a membrane.)

Assay [2] addresses T2, recombinant HisHA-tagged APC3 (human, UniProt P30260 1-824).
T2 construct: Expressed from baculovirus in Sf9 or Hi5 cells and used as insect cell lysate; also called APC3/CDC27; not shown: HisHA tag
The assay is described as follows: peptide matrix pull-down from insect cell lysate, western blot.

The target of assay [3] is T3, recombinant HisHA-tagged APC5 (UniProt Q9UJX4 1-755).
T3 construct: Expressed from baculovirus and used as insect cell lysate; not shown: HisHA tag
The description is as above.

The target of assay [4] is T4, recombinant HisHA-tagged APC8 (UniProt Q9UJX2 1-597).
T4 construct: Expressed from baculovirus and used as insect cell lysate; also called APC8/CDC23; not shown: HisHA tag
The assay is described as above.

The target of assay [5] is T5, APC7 C-terminal part (amino acids 298 to 565) comprising the block of TPRs (human, UniProt Q9UJX3 298-565, limits assumed).
T5 construct: Recombinantly expressed fragment; also called APC7 TPR domain; APC7 C-terminal fragment
In words: peptide binding assay with recombinant APC7 fragments.

Assay [6] deals with T6, APC7 fragment containing the N-terminal 297 amino acids (human, UniProt Q9UJX3 1-297, limits assumed).
T6 construct: Recombinantly expressed fragment; also called APC7 N-terminal fragment
The assay is described as above.

Assay [7] has as its target T7, native CDC26 from late-eluting Q column fractions of HeLa extract (human, UniProt Q8NHZ8 1-85).
T7 construct: Endogenous protein in anion exchange fractions
In words: peptide matrix pull-down from late-eluting Q column fractions, western blot.

T3 sequence (Q9UJX4 whole entry): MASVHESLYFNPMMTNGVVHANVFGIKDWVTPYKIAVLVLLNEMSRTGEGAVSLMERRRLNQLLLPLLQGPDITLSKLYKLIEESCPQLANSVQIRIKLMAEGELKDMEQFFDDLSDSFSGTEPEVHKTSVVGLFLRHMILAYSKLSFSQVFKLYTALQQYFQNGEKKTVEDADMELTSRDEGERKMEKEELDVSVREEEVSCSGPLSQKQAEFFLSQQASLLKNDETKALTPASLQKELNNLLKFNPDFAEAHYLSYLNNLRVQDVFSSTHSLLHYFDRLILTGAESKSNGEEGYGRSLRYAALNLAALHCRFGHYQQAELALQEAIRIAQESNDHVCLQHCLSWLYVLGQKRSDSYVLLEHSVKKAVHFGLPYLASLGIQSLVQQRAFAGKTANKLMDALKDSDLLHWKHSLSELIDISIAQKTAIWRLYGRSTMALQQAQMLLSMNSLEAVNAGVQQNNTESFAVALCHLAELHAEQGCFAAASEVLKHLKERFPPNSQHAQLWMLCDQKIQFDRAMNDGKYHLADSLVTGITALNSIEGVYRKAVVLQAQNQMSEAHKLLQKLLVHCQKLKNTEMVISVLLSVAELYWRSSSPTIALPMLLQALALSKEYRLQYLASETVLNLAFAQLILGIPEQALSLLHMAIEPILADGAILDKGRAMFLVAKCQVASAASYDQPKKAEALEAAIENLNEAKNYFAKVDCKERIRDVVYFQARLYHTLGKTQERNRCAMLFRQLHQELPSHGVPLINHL
T5 sequence (Q9UJX3 298-565 limits assumed): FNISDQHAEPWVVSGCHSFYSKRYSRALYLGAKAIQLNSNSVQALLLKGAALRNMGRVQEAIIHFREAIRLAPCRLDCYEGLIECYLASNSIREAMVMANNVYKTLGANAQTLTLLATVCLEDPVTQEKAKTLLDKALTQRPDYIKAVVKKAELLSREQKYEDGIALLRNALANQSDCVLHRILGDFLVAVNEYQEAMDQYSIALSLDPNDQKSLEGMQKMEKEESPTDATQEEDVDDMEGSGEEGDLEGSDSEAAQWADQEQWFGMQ
T4 sequence (Q9UJX2 whole entry): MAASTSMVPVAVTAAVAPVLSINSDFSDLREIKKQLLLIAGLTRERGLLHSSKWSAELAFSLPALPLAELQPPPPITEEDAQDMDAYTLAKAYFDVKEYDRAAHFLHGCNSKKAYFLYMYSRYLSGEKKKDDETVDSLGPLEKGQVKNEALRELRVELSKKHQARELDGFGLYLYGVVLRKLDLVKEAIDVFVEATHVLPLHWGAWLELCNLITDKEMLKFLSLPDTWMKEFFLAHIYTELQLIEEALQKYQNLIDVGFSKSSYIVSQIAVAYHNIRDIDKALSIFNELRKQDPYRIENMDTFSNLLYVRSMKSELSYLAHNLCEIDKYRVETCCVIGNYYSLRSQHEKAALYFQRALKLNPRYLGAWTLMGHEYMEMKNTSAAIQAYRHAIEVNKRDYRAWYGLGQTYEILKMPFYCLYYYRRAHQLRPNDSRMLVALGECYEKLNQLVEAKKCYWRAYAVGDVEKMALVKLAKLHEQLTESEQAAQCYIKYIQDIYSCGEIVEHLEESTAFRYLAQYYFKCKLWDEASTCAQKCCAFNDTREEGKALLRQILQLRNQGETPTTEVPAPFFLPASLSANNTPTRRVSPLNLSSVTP
T6 sequence (Q9UJX3 1-297 limits assumed): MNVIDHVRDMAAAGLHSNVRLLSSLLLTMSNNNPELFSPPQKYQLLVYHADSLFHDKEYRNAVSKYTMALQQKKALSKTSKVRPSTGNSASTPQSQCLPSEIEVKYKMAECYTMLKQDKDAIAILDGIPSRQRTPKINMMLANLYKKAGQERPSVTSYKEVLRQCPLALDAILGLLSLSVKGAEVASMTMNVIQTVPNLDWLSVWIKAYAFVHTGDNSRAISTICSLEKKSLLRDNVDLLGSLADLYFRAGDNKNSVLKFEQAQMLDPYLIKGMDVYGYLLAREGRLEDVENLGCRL
T7 sequence (Q8NHZ8 whole entry): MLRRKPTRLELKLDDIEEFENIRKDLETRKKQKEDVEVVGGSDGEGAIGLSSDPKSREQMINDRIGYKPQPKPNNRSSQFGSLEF
T2 sequence (P30260 whole entry): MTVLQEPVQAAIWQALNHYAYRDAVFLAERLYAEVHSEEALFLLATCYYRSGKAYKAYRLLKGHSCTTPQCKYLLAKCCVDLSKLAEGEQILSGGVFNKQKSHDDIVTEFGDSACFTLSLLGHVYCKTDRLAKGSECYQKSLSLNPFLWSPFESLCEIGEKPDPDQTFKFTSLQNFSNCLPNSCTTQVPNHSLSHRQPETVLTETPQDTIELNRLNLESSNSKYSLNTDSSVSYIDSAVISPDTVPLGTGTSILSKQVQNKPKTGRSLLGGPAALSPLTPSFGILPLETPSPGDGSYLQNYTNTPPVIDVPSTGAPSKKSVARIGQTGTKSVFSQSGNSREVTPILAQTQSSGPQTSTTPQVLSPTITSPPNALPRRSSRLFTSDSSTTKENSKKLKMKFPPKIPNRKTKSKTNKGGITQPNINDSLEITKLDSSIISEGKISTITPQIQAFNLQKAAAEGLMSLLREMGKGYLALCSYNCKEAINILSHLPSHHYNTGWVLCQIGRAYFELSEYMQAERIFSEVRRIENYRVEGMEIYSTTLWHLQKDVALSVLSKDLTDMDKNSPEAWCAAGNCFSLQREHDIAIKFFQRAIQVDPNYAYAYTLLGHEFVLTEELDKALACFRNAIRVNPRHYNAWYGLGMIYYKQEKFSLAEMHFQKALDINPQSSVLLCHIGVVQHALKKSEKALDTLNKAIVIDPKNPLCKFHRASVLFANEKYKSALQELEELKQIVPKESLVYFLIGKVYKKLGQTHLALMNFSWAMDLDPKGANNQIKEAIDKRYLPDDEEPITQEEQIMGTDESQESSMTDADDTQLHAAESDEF

Consider CAVWSLSSCKPGFGVD [control peptide CAVWSLSSCKPGFGVD], for which the binding result in assay [1] and in assay [2] was “no binding” throughout.

B1: CDC20 C-terminal peptide CLRREREKASTSKSSLIHQGIR (peptide)
peptide: CLRREREKASTSKSSLIHQGIR
notes: Synthetic peptide; also called CDC20 C-terminus; CDC20 peptide
On to B1, for which the binding result in assay [3] is “no binding”; in assay [4], “no binding”; in assay [5] it was “binds”.

B2: CDH1 C-terminal peptide CFSKTRSTKESVSVLNLFTRIR (peptide)
peptide: CFSKTRSTKESVSVLNLFTRIR
notes: Synthetic peptide; also called CDH1 C-terminus; CDH1 peptide
For the molecule B2, the binding result in assay [3] was “no binding”; in assay [4], “no binding”; in assay [5], “binds”; in assay [6] it was “no binding”; in assay [7], “no binding”.
